In patent publication US11352401 one finds peptide exchange yield data, which are given here for 55 molecules.

One experiment has as its target T1, HLA-B*08 (human).
T1 construct: MHC monomer made peptide-receptive by UV cleavage of a UV-sensitive ligand; also called peptide-receptive MHC class I monomer
In words: UV peptide-exchange ELISA; ++++ = yield >75%.
Molecule EAAIRSVEL [EAAIRSVEL (SEQ ID NO: 318)] had a peptide exchange yield of over 75%.

The next experiment addresses T2, HLA-B*44 (human).
T2 construct: MHC monomer made peptide-receptive by UV cleavage of a UV-sensitive ligand; also called peptide-receptive MHC class I monomer
In words: UV peptide-exchange ELISA; ++++ = yield >75%. On the technique in general: ELISA stands for enzyme-linked immunosorbent assay.
In turn, SEIGKAVGF [SEIGKAVGF (SEQ ID NO: 489)] had a peptide exchange yield of over 75%.

Molecule NEVLTYIKF [NEVLTYIKF (SEQ ID NO: 352)] had a peptide exchange yield of over 75%.

As to SEMNVNMKY [SEMNVNMKY (SEQ ID NO: 365)], the peptide exchange yield is over 75%.

As for FEYDFLLQRI (also called FEYDFLLORI) [FEYDFLLQRI (SEQ ID NO: 328)], the peptide exchange yield was over 75%.

For the molecule DELFSIALY [DELFSIALY (SEQ ID NO: 359)], the peptide exchange yield was over 75%.

KEADIHFLI [KEADIHFLI (SEQ ID NO: 358)] came in with a peptide exchange yield of over 75%.

MEVDPIGHVYIF [MEVDPIGHVYIF (SEQ ID NO: 320)] had a peptide exchange yield of over 75%.

In turn, GEIIMQNNW [GEIIMQNNW (SEQ ID NO: 353)] showed a peptide exchange yield of over 75%.

As to AEMLERVIKNY [AEMLERVIKNY (SEQ ID NO: 319)], the peptide exchange yield was over 75%.

SEPALLHSW [SEPALLHSW (SEQ ID NO: 339)] registered a peptide exchange yield of over 75%.

Take AEVGFVRFF [AEVGFVRFF (SEQ ID NO: 484)]: the peptide exchange yield is over 75%.

In the case of TENRYCVQL [TENRYCVQL (SEQ ID NO: 337)], the peptide exchange yield is over 75%.

Molecule SENLFFASF [SENLFFASF (SEQ ID NO: 361)] showed a peptide exchange yield of over 75%.

IEFIHPQAF [IEFIHPQAF (SEQ ID NO: 345)] returned a peptide exchange yield of over 75%.

For the molecule VEAPGPVHVYW [VEAPGPVHVYW (SEQ ID NO: 346)], the peptide exchange yield was over 75%.

Another experiment deals with T1, HLA-B*08. In words: UV peptide-exchange ELISA; +++ = yield >50%.
The molecule DAIQRKYSC [DAIQRKYSC (SEQ ID NO: 309)] gave a peptide exchange yield of 50 to 75%.

VIKEKALTL [VIKEKALTL (SEQ ID NO: 316)] came in with a peptide exchange yield of 50 to 75%.

For HLLQKQTSI [HLLQKQTSI (SEQ ID NO: 302)], the peptide exchange yield is 50 to 75%.

VASPKHCVL [VASPKHCVL (SEQ ID NO: 300)]: the peptide exchange yield lay within 50 to 75%.

The molecule FNKRKPLSL [FNKRKPLSL (SEQ ID NO: 298)] had a peptide exchange yield of 50 to 75%.

For a further experiment, the target named is T3, HLA-A*02 (human).
T3 construct: MHC monomer made peptide-receptive by UV cleavage of a UV-sensitive ligand; also called peptide-receptive MHC class I monomer
In words: UV peptide-exchange ELISA; +++ = yield >50%.
FALPGLLHA [FALPGLLHA (SEQ ID NO: 91)] showed a peptide exchange yield of 50 to 75%.

As for NLRDLLSEV [NLRDLLSEV (SEQ ID NO: 92)], the peptide exchange yield lay in the range of 50 to 75%.

Take FIISDWRFVL [FIISDWRFVL (SEQ ID NO: 101)]: the peptide exchange yield fell in the range of 50 to 75%.

The target of another experiment is T4, HLA-A*01 (human).
T4 construct: MHC monomer made peptide-receptive by UV cleavage of a UV-sensitive ligand; also called peptide-receptive MHC class I monomer
In words: UV peptide-exchange ELISA; ++ = yield >20%. From the text:
(§1) Candidate peptides for T cell based therapies according to the present invention were further tested for their MHC binding capacity (affinity). The individual peptide-MHC complexes were produced by UV-ligand exchange, where a UV-sensitive peptide is cleaved upon UV-irradiation, and exchanged with the peptide of interest as analyzed. Only peptide candidates that can effectively bind and stabilize the peptide-receptive MHC molecules prevent dissociation of the MHC complexes. To determine the yield of the exchange reaction, an ELISA was performed based on the detection of the light chain (β2m) of stabilized MHC complexes. The assay was performed as generally described in Rodenko et al. (Rodenko et al., 2006).
(§2) 96 well MAXISorp plates (NUNC) were coated over night with 2 ug/ml streptavidin in PBS at room temperature, washed 4× and blocked for 1 h at 37° C. in 2% BSA containing blocking buffer. […] Peptide-MHC monomers of the UV-exchange reaction were diluted 100-fold in blocking buffer. Samples were incubated for 1 h at 37° C., washed four times, incubated with 2 ug/ml HRP conjugated anti-β2m for 1h at 37° C., washed again and detected with TMB solution that is stopped with […]. Absorption was measured at 450 nm.
For GLNTGSALSY [GLNTGSALSY (SEQ ID NO: 146)], the peptide exchange yield is 20 to 50%.

For YLPQHTIETY [YLPQHTIETY (SEQ ID NO: 199)], the peptide exchange yield is 20 to 50%.

ATDLVVLDRY [ATDLVVLDRY (SEQ ID NO: 136)] returned a peptide exchange yield of 20 to 50%.

In the case of SSDSSTLPKL [SSDSSTLPKL (SEQ ID NO: 178)], the peptide exchange yield fell in the range of 20 to 50%.

Molecule GSSDSSTLPKL [GSSDSSTLPKL (SEQ ID NO: 147)] yielded a peptide exchange yield of 20 to 50%.

A further experiment has as its target T2, HLA-B*44. In words: UV peptide-exchange ELISA; ++ = yield >20%.
Description: as §1, §2
As for TEGIIMKDF [TEGIIMKDF (SEQ ID NO: 372)], the peptide exchange yield was in the range of 20 to 50%.

With AEEEIMKKI [AEEEIMKKI (SEQ ID NO: 476)], the peptide exchange yield was 20 to 50%.

Consider TEFTTVLY [TEFTTVLY (SEQ ID NO: 343)], for which the peptide exchange yield fell in the range of 20 to 50%.

Consider GEFPVRVQV [GEFPVRVQV (SEQ ID NO: 368)], for which the peptide exchange yield was 20 to 50%.

With KEVDPAGHSY [KEVDPAGHSY (SEQ ID NO: 322)], the peptide exchange yield was 20 to 50%.

Molecule MEVPVIKI [MEVPVIKI (SEQ ID NO: 332)] came in with a peptide exchange yield of 20 to 50%.

As to GEVSGLTKDF [GEVSGLTKDF (SEQ ID NO: 480)], the peptide exchange yield was 20 to 50%.

The molecule QEQDVDLVQKY [QEQDVDLVQKY (SEQ ID NO: 325)] gave a peptide exchange yield of 20 to 50%.

In turn, GELALKKKI [GELALKKKI (SEQ ID NO: 371)] showed a peptide exchange yield of 20 to 50%.

The molecule KELEATKQY [KELEATKQY (SEQ ID NO: 335)] returned a peptide exchange yield of 20 to 50%.

ASSSGPMRWW [ASSSGPMRWW (SEQ ID NO: 336)] gave a peptide exchange yield of 20 to 50%.

For SDMVRFHLF [SDMVRFHLF (SEQ ID NO: 355)], the peptide exchange yield lay within 20 to 50%.

AENLFRAF [AENLFRAF (SEQ ID NO: 366)] gave a peptide exchange yield of 20 to 50%.

In turn, TEFPIIKMY [TEFPIIKMY (SEQ ID NO: 488)] returned a peptide exchange yield of 20 to 50%.

In turn, AEDEPAAAHL [AEDEPAAAHL (SEQ ID NO: 334)] returned a peptide exchange yield of 20 to 50%.

The target in a further experiment is T5, HLA-B*07 (human).
T5 construct: MHC monomer made peptide-receptive by UV cleavage of a UV-sensitive ligand; also called peptide-receptive MHC class I monomer
In words: UV peptide-exchange ELISA; ++ = yield >20%.
Description: as §1, §2
In turn, FPQKFIDLL [FPQKFIDLL (SEQ ID NO: 288)] had a peptide exchange yield of 20 to 50%.

In turn, MPLLWLRGF [MPLLWLRGF (SEQ ID NO: 273)] registered a peptide exchange yield of 20 to 50%.

HPELVNHIVF [HPELVNHIVF (SEQ ID NO: 267)]: the peptide exchange yield fell in the range of 20 to 50%.

As to HPMIDINGIIVF [HPMIDINGIIVF (SEQ ID NO: 278)], the peptide exchange yield was 20 to 50%.

For FPVTSIFHTF [FPVTSIFHTF (SEQ ID NO: 284)], the peptide exchange yield is 20 to 50%.

YPENGVVQM [YPENGVVQM (SEQ ID NO: 469)] registered a peptide exchange yield of 20 to 50%.

The next experiment concerns the target T6, HLA-A*24 (human).
T6 construct: MHC monomer made peptide-receptive by UV cleavage of a UV-sensitive ligand; also called peptide-receptive MHC class I monomer
In words: UV peptide-exchange ELISA; + = yield >10%.
Description: as §1, §2
For AYTLLGHEFV [AYTLLGHEFV (SEQ ID NO: 77)], the peptide exchange yield lay in the range of 10 to 20%.

Take LIFMLANVF [LIFMLANVF (SEQ ID NO: 39)]: the peptide exchange yield lay in the range of 10 to 20%.

As for STIRGELFFF [STIRGELFFF (SEQ ID NO: 12)], the peptide exchange yield was in the range of 10 to 20%.

On to ILKEDPFLF [ILKEDPFLF (SEQ ID NO: 19)], for which the peptide exchange yield fell in the range of 10 to 20%.

As to IQMDEPMAF [IQMDEPMAF (SEQ ID NO: 43)], the peptide exchange yield lay within 10 to 20%.
